Here are results for one protein from patent US20060142195.

The data set addresses T1, fibrin, P02671.
T1 chain 1: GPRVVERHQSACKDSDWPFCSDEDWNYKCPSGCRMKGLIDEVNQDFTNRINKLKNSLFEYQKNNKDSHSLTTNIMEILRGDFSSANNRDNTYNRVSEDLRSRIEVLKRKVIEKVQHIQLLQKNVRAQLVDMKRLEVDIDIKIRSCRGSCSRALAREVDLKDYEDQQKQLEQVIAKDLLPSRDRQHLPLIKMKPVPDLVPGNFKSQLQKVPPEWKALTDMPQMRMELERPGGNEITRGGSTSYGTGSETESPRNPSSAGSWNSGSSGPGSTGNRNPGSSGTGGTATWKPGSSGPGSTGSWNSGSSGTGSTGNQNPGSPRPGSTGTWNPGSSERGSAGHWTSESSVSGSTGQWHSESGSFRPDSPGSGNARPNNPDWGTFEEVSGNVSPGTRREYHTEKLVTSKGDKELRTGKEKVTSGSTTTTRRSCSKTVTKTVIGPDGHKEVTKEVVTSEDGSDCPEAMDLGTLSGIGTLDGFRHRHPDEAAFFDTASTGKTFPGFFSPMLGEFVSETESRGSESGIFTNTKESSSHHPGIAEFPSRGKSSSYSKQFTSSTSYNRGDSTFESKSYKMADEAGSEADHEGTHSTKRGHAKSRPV
T1 chain 2: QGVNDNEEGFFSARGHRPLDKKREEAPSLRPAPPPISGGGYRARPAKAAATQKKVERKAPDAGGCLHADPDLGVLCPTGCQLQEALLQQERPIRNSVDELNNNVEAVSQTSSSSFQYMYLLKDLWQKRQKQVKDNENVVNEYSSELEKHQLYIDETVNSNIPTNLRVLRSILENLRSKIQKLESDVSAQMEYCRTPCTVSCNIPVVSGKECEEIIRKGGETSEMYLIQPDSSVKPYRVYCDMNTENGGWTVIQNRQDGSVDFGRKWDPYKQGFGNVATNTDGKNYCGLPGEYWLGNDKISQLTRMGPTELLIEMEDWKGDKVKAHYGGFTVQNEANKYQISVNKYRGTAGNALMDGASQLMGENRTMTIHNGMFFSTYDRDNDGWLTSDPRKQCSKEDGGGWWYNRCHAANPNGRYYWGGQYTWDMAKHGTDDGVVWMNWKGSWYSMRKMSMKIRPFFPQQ
T1 chain 3: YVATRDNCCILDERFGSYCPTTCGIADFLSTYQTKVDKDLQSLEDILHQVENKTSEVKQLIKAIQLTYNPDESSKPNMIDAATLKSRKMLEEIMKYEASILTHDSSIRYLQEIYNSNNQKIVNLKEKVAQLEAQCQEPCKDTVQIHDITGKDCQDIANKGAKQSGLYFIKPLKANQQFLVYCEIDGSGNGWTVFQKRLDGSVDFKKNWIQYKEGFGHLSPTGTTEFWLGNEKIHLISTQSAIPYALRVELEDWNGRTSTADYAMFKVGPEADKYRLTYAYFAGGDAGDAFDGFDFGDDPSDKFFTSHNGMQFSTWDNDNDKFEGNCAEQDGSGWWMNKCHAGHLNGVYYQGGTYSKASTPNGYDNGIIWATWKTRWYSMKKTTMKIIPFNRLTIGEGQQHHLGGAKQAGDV

B1: modified tissue plasminogen activator with an amino acid sequence according to SEQ ID No. 1 (protein)
chain: AYGVACKDEITQMTYRRQESWLRPEVRSKRVEHCQCDRGQARCHTVPVKSCSEPRCFNGGTCQQALYFSDFVCQCPEGFAGKCCEIDTRATCYEDQGISYRGTWSTAESGAECTNWNSSALAQKPYSGRRPDAIRLGLGNHNYCRNPDRDSKPWCYVFKAGKYSSEFCSTPACSSTCGLRQYSQPQFHSTGGLFADIASHPWQAAIFAKHRRSPGERFLCGGILISSCWILSAAHCFQERFPPHHLTVILGRTYRVVPGEEEQKFEVEKYIVHKEFDDDTYDNDIALLQLKSDSSRCAQESSVVRTVCLPPADLQLPDWTECELSGYGKHEALSPFYSERLKEAHVRLYPSSRCTSQHLLNRTVTDNMLCAGDTRSGGPQANLHDACQGDSGGPLVCLNDGRMTLVGIISWGLGCGQKDVPGVYTKVTNYLDWIRDNMRP
For B1, the “fibrin specificity (semi quantitative tests)” value is “showed a increased fibrin specificity in comparison to the wild type t-PA”.
